Our source for the Kd values is article PMC7881117 (Nature Communications, 2021).

The test has as its target T1, full-length p53 (UniProt P04637 1-393).
T1 construct: A fluorescein-labelled form was used in the ubiquitination assay only
Put plainly: SPR; p53 binding domain of MDM2 immobilised on a CM5 chip by amine coupling; full-length p53 at 0.125 to 2 μM flowed over; BIAcore 3000. The note with it: both partners purified. A general note: In SPR one partner is held on a chip, and binding of the other changes the refractive index at the surface.

T1 sequence (P04637 whole entry): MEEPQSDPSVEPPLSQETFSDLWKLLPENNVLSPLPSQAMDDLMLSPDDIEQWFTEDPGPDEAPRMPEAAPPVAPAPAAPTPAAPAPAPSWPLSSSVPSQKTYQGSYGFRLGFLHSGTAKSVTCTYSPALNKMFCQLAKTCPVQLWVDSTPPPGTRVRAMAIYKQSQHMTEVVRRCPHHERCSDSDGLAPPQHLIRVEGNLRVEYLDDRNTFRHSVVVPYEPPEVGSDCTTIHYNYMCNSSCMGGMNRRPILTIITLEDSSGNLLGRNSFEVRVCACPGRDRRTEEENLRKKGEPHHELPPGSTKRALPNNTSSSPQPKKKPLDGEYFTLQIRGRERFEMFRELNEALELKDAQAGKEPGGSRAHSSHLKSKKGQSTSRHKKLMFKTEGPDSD

B1: MDM2 p53 binding domain (domain or fragment)
chain: TLVRPKPLLLKLLKSVGAQKDTYTMKEVLFYLGQYIMTKRLYDEKQQHIVYCSNDLLGDLFGVPSFSVKEHRKIYTMIYRNLVV
Usually Kd stands for the concentration at which binding is half-saturated. A lower Kd goes with higher affinity. B1 came in with an equilibrium dissociation constant (Kd) of 600 ± 100 nM.
